Source: the supplement of paper PMC10567573

B1: SMOC2 (parent)
chain: DCAGSPQKPLCASDGRTFLSRCEF

Variants of: B1
Experiment: protein stability index of a GFP-peptide fusion (GPS, HEK-293T) (PSI 1-6); higher = more stable
Details: c terminus: a fixed tail appended
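Further: lentivirally expressed fusions sorted by FACS into six bins by GFP to DsRed ratio, PSI derived from sequencing read proportions per bin multiplied by bin number.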

Protein stability index: each site, then its substitutions
P9: K 1.85, F 1.99, V 2.4, C 2.65, S 3.08, T 2.69, A 3.42
S20: I 3.04, V 3.04, N 3.64, G 2.17, P 3.59, R 3.23, W 3.01, H 2.68, K 3.04, D 4.1, M 1.41, E 2.93, Q 2.97, L 3.1, A 2.85, C 2.86
L19: V 1.88, S 3.06, W 2.34, K 3.53, A 2.44, G 3.07, Q 2.49, H 3.82, T 2.59, N 4.01, F 4.33, Y 2.49, E 3.51, D 4.93, C 3.85, I 2.07, M 2.99
T17: V 2.22, H 3.45, N 3.27, C 2.04, R 2.47, P 3.4, E 3.82, M 3.31, Q 3.7, S 2.66, F 2.32, K 3.44, G 3.97
A3: P 2.37, D 2.95, I 2.71, N 2.66, Y 2.02, F 3.16, Q 2.82, H 2.29, S 2.32, R 2.38, T 2.56
D14: R 2.03, W 1.89, Y 2.26, V 2.6, M 2, P 2.36, G 2.56, I 2.12, C 1.6, H 1.78, Q 2.39, S 3.19, T 2.82
S5: W 2.46, G 3.07, K 2.72, A 2.94, M 2.52, V 2.76, P 2.72, Y 2.68, C 2.24, L 2.46, D 2.96, I 2.14, T 2.24
A12: H 2.18, R 2.14, W 1.51, L 2.56, I 2.5, C 1.59, V 2.97, P 3.11, T 3.32, N 2.94, F 1.89, D 2.88, Y 2.47, E 3.96, K 2.59
S13: A 3.39, F 1.7, H 2.29, D 3.16, T 2.91, V 2.61, E 3.25, Y 2.25, I 3.88
Q7: L 2.11, I 1.83, M 2.73, C 2.26, Y 2.36, T 2.46, K 3.04, G 2.88, V 2.39, H 2.1, R 3.06, A 2.51, N 1.96
G15: Q 2.57, W 2.06, L 2.17, I 2.76, D 3.49, V 2.03, N 3.01, C 1.99, Y 2.81, F 2.42
G4: D 4.36, W 2.32, Y 2.22, L 2.56, N 2.62, T 3.2, E 3.83, Q 2.88, C 3.17, H 3.44, K 2.65, I 2.87, R 2.08, P 2.56, V 2.47, S 2.24
P6: E 3.15, Q 2.75, H 2.21, Y 2.62, L 2.18, C 2.14, K 1.69, D 2.46, S 3.39, N 2.66, V 1.8, A 1.73, G 2.62, W 2.08
